Results from the supplement of paper PMC9732359.
± gives the uncertainty stated by the source.

Assay: protein stability index of a GFP-peptide fusion (yeast GPS) (PSI 1-4); higher = more stable; sorted into four equal gates, so the index is relative within each strain
Conditions: pdr5∆
Summary of the method: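 Plasmids in a pooled yeast library fused tiled 17-residue yeast protein peptides downstream of GFP and also expressed Cherry. Mid-log cultures grown without leucine were sorted into four equal gates by GFP/Cherry fluorescence ratio. Each gate's plasmids were PCR-amplified and Illumina-sequenced, and reads were matched to strains by barcodes. The protein stability index is derived by multiplying each gate's read frequency by its gate number and summing the results.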

| Sequence | protein stability index |
| --- | --- |
| GLDKFSNIDIRVRVTGG [RPS16A] | 1.74 ± 0.072 |
| GLFEKSTVSANHSNNDI [BRN1] | 2.95 ± 0.11 |
| GLIPADATFAGHSLGEY [FAS1] | 3.21 ± 0.06 |
| GLNRHYYSLNIDYHKTA [RPN11] | 2.27 ± 0.29 |
| GLPTDAYVAIEQVKDDG [RPN8] | 1.92 ± 0.1 |
| GLPVGAIMNCADNSGAR [RPL23A] | 2.28 ± 0.06 |
| GLQDEIMKIGGIKLQMQ [SMC4] | 3.13 ± 0.053 |
| GLQGSGKTTSCTKLAVY [SRP54] | 2.91 ± 0.077 |
| GLSTDHTTQIVNLEDNT [YML103C/NUP188] | 2.99 ± 0.078 |
| GLTQLYKKSTENESTNY [MED7] | 2.84 ± 0.081 |
| GMCQLYFWHKIWRKVPG [SNU114] | 1.8 ± 0.057 |
| GNESVKPQFENHVKQFY [MED11] | 2.57 ± 0.22 |
| GNITRGLAVGLALINYG [RPN2] | 1.22 ± 0.11 |
| GNKNQFEPSISRSNFQG [LRP1] | 2.7 ± 0.16 |
| GNLYSKVMNNSFKLCTL [YML103C/NUP188] | 2.8 ± 0.15 |
| GNPGLPQYQYQRRYVIK [ITC1] | 3.04 ± 0.15 |
| GNPLLYDGVERVSLQDI [QCR2] | 2.18 ± 0.17 |
| GPDTKGQLEDFDSELIH [SMC3] | 3.52 ± 0.18 |
| GPKSGSTMGTPTVHNST [PGD1] | 3.04 ± 0.055 |
| GPLAEEPIYGVQYKLLS [SNU114] | 2.6 ± 0.12 |
| GPPQSLYGLNLTLRKAK [FAS1] | 2.15 ± 0.065 |
| GPVRENDILVLMESERE [RPS28A] | 3.4 ± 0.083 |
| GQIITLFSSRRLQAKRL [RMP1] | 2.76 ± 0.052 |
| GQLVELYVPRKCSATNR [RPS21A] | 1.32 ± 0.19 |
| GRGLWNPSYPGMMSTTG [YJL039C/NUP192] | 3.12 ± 0.053 |

| Sequence | protein stability index |
| --- | --- |
| GRGRGRGRPPKARNGLD [SNF2] | 3.17 ± 0.075 |
| GRILKWLWPLCRGELKA [CDC53] | 1.64 ± 0.06 |
| GRIPNVPVIVKARFVSK [RPL28] | 2.575 ± 0.024 |
| GRNNGKKLKAVRIIKHT [RPS5] | 2.25 ± 0.08 |
| GRPRGRPKKVKLEGSEN [SNF2] | 3.21 ± 0.21 |
| GSAEFNVKYRAVVFKPF [RPB7] | 1.85 ± 0.11 |
| GSCTGKFGYILCVLDYD [RPB7] | 2.54 ± 0.061 |
| GSFKRVKPQYDEIHIPA [BRR2] | 3.07 ± 0.14 |
| GSGAPVYLTAVLEYLAA [HTA1] | 1.7 ± 0.077 |
| GSHLSETEFPPFREFLQ [ECM29] | 3.11 ± 0.071 |
| GSIAMARVLFDDMVEYE [CYT1] | 3.33 ± 0.12 |
| GSLALLKLSMADYNGAL [POP4] | 2.67 ± 0.058 |
| GSSDEDLKSLNVRDDMK [SSN2] | 3.58 ± 0.11 |
| GSVELSTGDYTFTIQLL [YML103C/NUP188] | 2.41 ± 0.072 |
| GSYLCTSSTPSPIKNGS [YOR098C/NUP1] | 2.94 ± 0.054 |
| GTGNNSAVKRLLHVAVS [RPN2] | 2.51 ± 0.25 |
| GTQLATLKNRGLPLGIA [YGR119C/NUP57] | 2.29 ± 0.059 |
| GVAASQGSMSERPPYIL [SIR2] | 3.08 ± 0.089 |
| GVGILYKGMASNDERIV [BRR2] | 2.23 ± 0.081 |
| GVMLWKEFDETIFNLPK [FAS1] | 1.56 ± 0.12 |
| GVMSLLQKSSKSMITSE [YAR002W/NUP60] | 2.61 ± 0.062 |
| GVPNYLVQLEPHLFVNG [SSN2] | 1.97 ± 0.063 |
| GVRDINCVNDVLEFCKD [POP1] | 2.82 ± 0.18 |
| GVRPFGVSLLIAGHDEF [PRE8] | 1.95 ± 0.096 |
| GVSIENENKVIIELPNE [SRB4] | 3.02 ± 0.1 |
